Article PMC9482650, “Quantitative fragmentomics allow affinity mapping of interactomes” (Nature Communications, 2022)

Experiments:
Assay in all cases: holdup assay
Design in all cases: key: below the threshold = too weak to quantify, mostly under pKd 3.1 to 4
[1] = molecular target: CASK, O14936
[2] = molecular target: T1, FRMPD1, Q5SYB0
T1 sequence (Q5SYB0 52-145, limits assumed, looked up): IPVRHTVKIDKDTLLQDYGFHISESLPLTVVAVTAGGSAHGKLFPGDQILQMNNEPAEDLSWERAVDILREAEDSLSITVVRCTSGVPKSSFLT

[3] = molecular target: GORASP1, Q9BQQ3
[4] = molecular target: Inadl_5, Q8NI35
[5] = molecular target: LNX1_3, Q8TBB1
[6] = molecular target: T2, MPDZ_5, O75970
T2 sequence (O75970 695-796, limits assumed, looked up): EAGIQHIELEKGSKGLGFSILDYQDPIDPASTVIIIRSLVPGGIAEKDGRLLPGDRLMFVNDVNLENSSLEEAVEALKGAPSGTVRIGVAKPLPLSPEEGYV

[7] = molecular target: T3, DLG3_3, Q92796
T3 sequence (Q92796 374-475, limits assumed, looked up): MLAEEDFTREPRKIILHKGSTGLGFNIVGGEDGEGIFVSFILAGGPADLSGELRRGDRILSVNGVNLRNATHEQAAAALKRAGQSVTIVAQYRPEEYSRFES

[8] = molecular target: T4, GRIP1_7, Q9Y3R0
T4 sequence (Q9Y3R0 999-1096, limits assumed, looked up): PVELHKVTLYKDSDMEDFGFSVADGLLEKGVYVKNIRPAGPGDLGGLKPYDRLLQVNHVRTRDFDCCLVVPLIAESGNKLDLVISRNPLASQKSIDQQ

[9] = molecular target: SCRIB_2, Q14160
[10] = molecular target: FRMPD2_3, Q68DX3
[11] = molecular target: GOPC, Q9HD26
[12] = molecular target: T5, LIN7C, Q9NUP9
T5 sequence (Q9NUP9 88-185, limits assumed, looked up): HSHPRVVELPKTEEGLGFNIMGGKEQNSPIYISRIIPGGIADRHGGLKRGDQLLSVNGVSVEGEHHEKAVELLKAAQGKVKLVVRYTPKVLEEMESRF

[13] = molecular target: FRMPD2_2, Q68DX3
[14] = molecular target: LAP2, Q96RT1
[15] = molecular target: MAGI2_4, Q86UL8
[16] = molecular target: T6, APBA1_2, Q02410
T6 sequence (Q02410 742-832, limits assumed, looked up): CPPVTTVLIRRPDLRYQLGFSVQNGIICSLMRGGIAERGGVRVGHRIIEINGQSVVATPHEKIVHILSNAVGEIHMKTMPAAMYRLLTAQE

[17] = molecular target: DLG1_3, Q12959
[18] = molecular target: T7, APBA2_1, Q99767
T7 sequence (Q99767 563-664, limits assumed, looked up): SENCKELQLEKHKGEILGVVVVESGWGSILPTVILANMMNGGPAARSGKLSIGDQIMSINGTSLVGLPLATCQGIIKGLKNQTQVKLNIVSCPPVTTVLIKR

[19] = molecular target: T8, DVL3, Q92997
T8 sequence (Q92997 244-331, limits assumed, looked up): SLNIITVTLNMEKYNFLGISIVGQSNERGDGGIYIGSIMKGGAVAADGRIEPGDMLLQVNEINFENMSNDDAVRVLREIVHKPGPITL

[20] = molecular target: T9, PDZD7_3, Q9H5P4
T9 sequence (Q9H5P4 857-944, limits assumed, looked up): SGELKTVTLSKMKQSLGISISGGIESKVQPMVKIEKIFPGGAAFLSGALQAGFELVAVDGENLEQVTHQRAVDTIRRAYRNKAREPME

[21] = molecular target: FRMPD2_1, Q68DX3
[22] = molecular target: T10, SNTB1, Q13884
T10 sequence (Q13884 107-205, limits assumed, looked up): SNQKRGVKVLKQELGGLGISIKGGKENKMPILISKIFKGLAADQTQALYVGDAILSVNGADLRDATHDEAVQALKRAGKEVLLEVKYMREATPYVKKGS

[23] = molecular target: T11, SHANK1, Q9Y566
T11 sequence (Q9Y566 658-767, limits assumed, looked up): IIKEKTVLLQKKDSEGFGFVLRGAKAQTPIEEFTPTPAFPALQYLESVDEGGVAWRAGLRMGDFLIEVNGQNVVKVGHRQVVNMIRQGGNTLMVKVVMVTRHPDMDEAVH

[24] = molecular target: DLG4_3, P78352
[25] = molecular target: MAGI2_6, Q86UL8
[26] = molecular target: NOS1, P29475
[27] = molecular target: Inadl_1, Q8NI35
[28] = plain residues with an end cap or a label only (N-terminal biotin on a linker: ahx)
[29] = plain residues with an end cap or a label only (N-terminal biotin on a linker: ttds)

Sequence of FRMPD2_3, Q68DX3 (Q68DX3 1073-1166): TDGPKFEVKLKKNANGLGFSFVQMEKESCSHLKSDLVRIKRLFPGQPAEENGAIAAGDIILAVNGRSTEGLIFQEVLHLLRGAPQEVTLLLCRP
Sequence of MAGI2_6, Q86UL8 (Q86UL8 1141-1229): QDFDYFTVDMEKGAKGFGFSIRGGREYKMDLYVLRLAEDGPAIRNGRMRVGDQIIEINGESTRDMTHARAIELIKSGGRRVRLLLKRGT
Sequence of LAP2, Q96RT1 (Q96RT1 other isoform, or with tags, fused parts or gaps): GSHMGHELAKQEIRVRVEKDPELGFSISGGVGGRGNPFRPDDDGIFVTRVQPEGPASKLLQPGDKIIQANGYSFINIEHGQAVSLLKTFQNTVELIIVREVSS
Sequence of DLG1_3, Q12959 (Q12959 457-571): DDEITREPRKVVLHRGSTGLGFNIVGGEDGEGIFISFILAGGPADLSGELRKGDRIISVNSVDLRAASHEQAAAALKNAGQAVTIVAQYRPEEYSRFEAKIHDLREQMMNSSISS
Sequence of GORASP1, Q9BQQ3 (Q9BQQ3 1-208): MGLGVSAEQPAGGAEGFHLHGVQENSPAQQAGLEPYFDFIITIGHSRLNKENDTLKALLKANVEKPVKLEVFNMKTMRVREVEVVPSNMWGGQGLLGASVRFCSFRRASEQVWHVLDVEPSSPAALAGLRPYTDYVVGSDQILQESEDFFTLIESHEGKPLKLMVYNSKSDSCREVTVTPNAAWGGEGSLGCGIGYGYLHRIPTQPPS
Sequence of SCRIB_2, Q14160 (Q14160 857-960): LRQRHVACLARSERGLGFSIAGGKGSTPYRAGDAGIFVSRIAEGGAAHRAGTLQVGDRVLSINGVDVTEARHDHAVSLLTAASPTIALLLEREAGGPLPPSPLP
Sequence of Inadl_5, Q8NI35 (Q8NI35 673-780): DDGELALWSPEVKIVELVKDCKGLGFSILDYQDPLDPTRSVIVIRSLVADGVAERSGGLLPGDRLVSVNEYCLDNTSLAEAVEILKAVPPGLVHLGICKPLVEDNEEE
Sequence of DLG4_3, P78352 (P78352 306-403): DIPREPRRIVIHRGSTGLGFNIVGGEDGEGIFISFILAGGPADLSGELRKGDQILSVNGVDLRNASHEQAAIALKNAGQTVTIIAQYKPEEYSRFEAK
Sequence of FRMPD2_1, Q68DX3 (Q68DX3 770-861): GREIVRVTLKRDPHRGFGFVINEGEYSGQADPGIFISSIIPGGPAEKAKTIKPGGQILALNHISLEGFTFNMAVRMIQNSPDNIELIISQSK
Sequence of NOS1, P29475 (P29475 9-101): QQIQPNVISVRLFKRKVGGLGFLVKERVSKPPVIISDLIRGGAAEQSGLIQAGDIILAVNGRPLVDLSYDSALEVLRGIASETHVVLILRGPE
Sequence of Inadl_1, Q8NI35 (Q8NI35 113-229): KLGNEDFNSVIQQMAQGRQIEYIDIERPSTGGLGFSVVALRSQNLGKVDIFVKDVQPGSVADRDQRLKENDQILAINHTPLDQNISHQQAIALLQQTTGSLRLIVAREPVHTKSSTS
Sequence of CASK, O14936 (O14936 487-570): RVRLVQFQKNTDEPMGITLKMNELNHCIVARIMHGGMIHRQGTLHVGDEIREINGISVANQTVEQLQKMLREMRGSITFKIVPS
Sequence of MAGI2_4, Q86UL8 (Q86UL8 772-865): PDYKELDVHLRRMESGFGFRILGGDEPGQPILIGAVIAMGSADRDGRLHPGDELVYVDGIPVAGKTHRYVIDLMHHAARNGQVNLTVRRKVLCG
Sequence of FRMPD2_2, Q68DX3 (Q68DX3 944-1038): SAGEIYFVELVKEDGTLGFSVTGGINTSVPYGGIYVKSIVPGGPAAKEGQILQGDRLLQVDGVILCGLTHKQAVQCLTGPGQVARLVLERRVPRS
Sequence of LNX1_3, Q8TBB1 (Q8TBB1 500-596): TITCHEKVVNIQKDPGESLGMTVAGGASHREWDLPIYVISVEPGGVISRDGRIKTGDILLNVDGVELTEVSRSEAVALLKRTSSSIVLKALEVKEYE

In the case of KKNKDKEYYV [NRXN1, Q9ULB1], the pKd [1, 28] is reported as “below the threshold”, the pKd [2, 28] is reported as “below the threshold” and the pKd [3, 28] is reported as 3.8. The pKd [4, 28] was 4.25, the pKd [5, 28] was “below the threshold” and the pKd [6, 28] was 3.85. The pKd [7, 28] was “below the threshold”, the pKd [8, 28] was 4.09 and the pKd [9, 28] was “below the threshold”. For the same binder, the pKd [10, 28] was 4.17, the pKd [11, 28] was “below the threshold” and the pKd [12, 28] was “below the threshold”. For the same binder, the pKd [13, 28] was “below the threshold”, the pKd [14, 28] was “below the threshold” and the pKd [15, 28] was “below the threshold”. The pKd [16, 28] was 3.62, the pKd [17, 28] was “below the threshold” and the pKd [18, 28] was “below the threshold”. The pKd [19, 28] was 3.61, the pKd [20, 28] was “below the threshold” and the pKd [21, 28] was “below the threshold”. For the same binder, the pKd [22, 28] was “below the threshold”, the pKd [23, 28] was “below the threshold” and the pKd [24, 28] was “below the threshold”. The pKd [25, 28] was “below the threshold”, the pKd [26, 28] was 3.57 and the pKd [27, 28] was “below the threshold”.

QPGTPTRTAV [MAP2K2, P36507] was tested, and the pKd [1, 29] was “below the threshold”, the pKd [2, 29] was “below the threshold” and the pKd [3, 29] was “below the threshold”. For the same binder, the pKd [4, 29] was “below the threshold”, the pKd [5, 29] was 3.67 and the pKd [6, 29] was 3.49. For the same binder, the pKd [7, 29] was “below the threshold”, the pKd [8, 29] was “below the threshold” and the pKd [9, 29] was “below the threshold”. The pKd [10, 29] was “below the threshold”, the pKd [11, 29] was “below the threshold” and the pKd [12, 29] was “below the threshold”. The pKd [13, 29] was “below the threshold”, the pKd [14, 29] was “below the threshold” and the pKd [15, 29] was 3.74. The pKd [16, 29] was 3.62, the pKd [17, 29] was “below the threshold” and the pKd [18, 29] was “below the threshold”. For the same binder, the pKd [19, 29] was “below the threshold”, the pKd [20, 29] was “below the threshold” and the pKd [21, 29] was “below the threshold”. For the same binder, the pKd [22, 29] was “below the threshold”, the pKd [23, 29] was 4.17 and the pKd [24, 29] was “below the threshold”. For the same binder, the pKd [25, 29] was “below the threshold”, the pKd [26, 29] was 3.96 and the pKd [27, 29] was “below the threshold”.
